Source: patent US20080026996A1, “Selective Vpac2 Receptor Reptide Agonists” (ELI LILLY AND COMPANY, priority 2004, published 2008)
Where no end group is shown, it is not given here. [ ]: non-standard residue; d: D form. The star is where a group is joined. Orn = NCCC[C@H](N)C(=O)O; Hexanoyl = CCCCCC(=O)*; Aib = CC(C)(N)C(=O)O

Each molecule was assayed against T1, human VPAC1 (Homo sapiens, UniProt P32241) (assay: Filter binding assay, membranes of cells transiently transfected with human VPAC1, 125I-labeled VIP tracer (Table 2)). Conditions: read-out: Human VPAC1 Receptor Binding.
T1 sequence (P32241 31-457): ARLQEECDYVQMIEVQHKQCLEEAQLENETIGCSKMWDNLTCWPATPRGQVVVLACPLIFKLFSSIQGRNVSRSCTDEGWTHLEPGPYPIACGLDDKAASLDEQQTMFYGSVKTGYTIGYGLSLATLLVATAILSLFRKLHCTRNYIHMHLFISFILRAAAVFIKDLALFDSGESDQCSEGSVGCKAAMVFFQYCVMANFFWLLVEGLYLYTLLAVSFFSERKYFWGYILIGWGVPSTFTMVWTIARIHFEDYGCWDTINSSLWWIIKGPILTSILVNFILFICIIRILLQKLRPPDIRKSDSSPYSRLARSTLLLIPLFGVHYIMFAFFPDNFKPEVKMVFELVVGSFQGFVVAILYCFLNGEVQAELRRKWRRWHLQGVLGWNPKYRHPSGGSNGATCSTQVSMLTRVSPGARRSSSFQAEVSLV
Parameters: expressed in transfected cells
Method: (§1) For this assay, the solutions and equipment include:
(§2) Presoak solution: 0.5% Polyethyleneamine in Aqua dest.
(§3) Buffer for flushing filter plates: 25 mM HEPES pH 7.4
(§4) Blocking buffer: 25 mM HEPES pH 7.4; 0.2% protease free BSA
(§5) Assay buffer: 25 mM HEPES pH 7.4; 0.5% protease free BSA
(§6) Dilution and assay plate: PS-Microplate, U form
(§7) Filtration Plate Multiscreen FB Opaque Plate; […] Type B Glasfiber filter
(§8) In order to prepare the filter plates, aspirate the presoak solution by vacuum filtration. Flush the plates twice with 200 μL flush buffer. Add 200 μL blocking buffer to the filter plate. The filter plate is then incubated […] for 1 hour at room temperature.
(§9) Fill the assay plate with 25 μL assay buffer, 25 μL membranes (2.5 μg) suspended in assay buffer, 25 μL compound (agonist) in assay buffer, and 25 μL tracer (about 40000 cpm) in assay buffer. Incubate the filled plate for 1 hour with shaking.
(§10) Conduct the transfer from assay plate to filter plate. Aspirate the blocking buffer by vacuum filtration and wash two times with flush buffer. Transfer 90 μL from the assay plate to the filter plate. Aspirate the 90 μL transferred from assay plate and wash three times with 200 μL flush buffer. Remove the plastic support. Dry for 1 hour at 60° C. Add 30 μL Microscint. Perform the count.

Molecule | IC50
HSDAVFTDNYTRLRKQVAAKKYLQSIKRGGPSSGAPPPS [Agonist P82] | 195 nM
HSDAVFTDNYTRLRRQVAAKKYLQSIKNKRYGGPSSGAPPPS [Agonist P72] | 159 nM
HSDAVFTDNYTRLRRQVAARRYLQSIRNRRYGGPSSGAPPPS [Agonist P71] | 73.1 nM
HSDAVFTDNYTRLRKQVAAKKYLQSIKKGGPSSGAPPPS [Agonist P85] | 226 nM
H-H[dA]DAVFTDNYTRLRKQVAAKKYLQSIKNKRYGGPSSGAPPPS [Agonist P47] | 124 nM
[dH]SDAVFTDNYTRLRKQVAAKKYLQSIKNKRYGGPSSGAPPPS [Agonist P84] | 469 nM

These molecules were tested against T2, human VPAC2 receptor (human, UniProt P41587 24-438) (assay: cell-based or functional assay). Conditions: not given.
T2 sequence (looked up): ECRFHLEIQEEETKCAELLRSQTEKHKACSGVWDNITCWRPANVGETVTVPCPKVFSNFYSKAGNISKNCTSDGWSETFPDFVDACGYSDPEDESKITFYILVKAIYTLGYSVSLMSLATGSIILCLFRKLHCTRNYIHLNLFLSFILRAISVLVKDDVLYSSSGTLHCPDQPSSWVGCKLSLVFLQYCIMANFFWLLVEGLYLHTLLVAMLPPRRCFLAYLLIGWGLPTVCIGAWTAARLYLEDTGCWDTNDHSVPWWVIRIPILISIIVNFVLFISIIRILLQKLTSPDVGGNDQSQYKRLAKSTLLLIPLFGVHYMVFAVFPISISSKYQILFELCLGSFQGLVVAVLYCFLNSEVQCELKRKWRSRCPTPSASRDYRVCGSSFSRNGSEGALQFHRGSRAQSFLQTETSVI

Molecule | EC50 cAMP, Alpha Screen | EC50 cAMP, DiscoveRx
Hexanoyl-HSDAVFTDNYTRL[Aib]KQVAA[Aib]KYLQSIKQKGGPSSGAPPPS (ends and bridges not checked) [P293] | 1.89 nM | –
Hexanoyl-HSDAVFTDNYTRLR[Aib]QVAAK[Aib]YLQSIKQKGGPSSGAPPPS (ends and bridges not checked) [P295] | 0.39 nM | –
Hexanoyl-HSDAVFTDNYTRL[Aib]KQVAA[Aib]KYLQSIKQGGPSSGAPPPS (ends and bridges not checked) [P296] | 6.69 nM | –
Hexanoyl-HSDAVFTDNYTRLR[Aib]QVAA[Aib]KYLQSIKQGGPSSGAPPPS (ends and bridges not checked) [P297] | 0.36 nM | –
Hexanoyl-HSDAVFTDNYTRLR[Aib]QVAAK[Aib]YLQSIKQGGPSSGAPPPS (ends and bridges not checked) [P298] | 0.5 nM | –
Hexanoyl-HSDAVFTDNYTRLR[Orn]QVAAKKYLQSIKNKRYGGPSSGAPPPS (ends and bridges not checked) [P307] | 0.32 nM | –
HSDAVFTDNYTRLXXQVAAXKYLQSIKNKRYGGPSSGAPPPS (N-terminal hexanoyl (C6); hR at 14; Aib at 15, 20) [P316] | 0.3 nM | –
Hexanoyl-HSDAVFTDNYTRL[Orn][Aib]QVAA[Aib]KYLQSIKNKRYGGPSSGAPPPS (ends and bridges not checked) [P319] | 0.26 nM | –
HSDAVFTDNYTRLXXQVAAXKYLQSIKNKRYGGPSSGAPPPS (N-terminal hexanoyl (C6); Cit at 14; Aib at 15, 20) [P320] | 0.49 nM | –
Hexanoyl-HSDAVFTDNYT[Aib]LR[Aib]QVAA[Aib]KYLQSIKNKRYGGPSSGAPPPS (ends and bridges not checked) [P345] | 1.17 nM | –
Hexanoyl-HSDAVFTDNYTRLR[Aib]QVAA[Aib]KYLQSIK[Aib]KGGPSSGAPPPS (ends and bridges not checked) [P349] | 0.08 nM | –
Hexanoyl-HSDAVFTDNYTRLR[Aib]QVAA[Aib]KYLQSIKPKGGPSSGAPPPS (ends and bridges not checked) [P350] | 0.13 nM | –
Hexanoyl-HSDAVFTDNYTRLR[Aib]QVAA[Aib]KYLQSIKKGGPSSGAPPPS (ends and bridges not checked) [P351] | 0.11 nM | –
Hexanoyl-HSDAVFTDNYTRLR[Aib]QVAA[Aib]KYLQSI[dK][dK]GGPSSGAPPPS (ends and bridges not checked) [P353] | 0.18 nM | –
HSDAVFTDNYTRLRXQVAAXKYLQSIKXGGPSSGAPPPS (N-terminal hexanoyl (C6); Aib at 15, 20; hR at 28) [P354] | 0.14 nM | –
Hexanoyl-HSDAVFTDNYTRLR[Aib]QVAA[Aib]KYLQSIK[Aib]GGPSSGAPPPS (ends and bridges not checked) [P355] | 0.1 nM | –
HSDAVFTDNYTXLRXQLAAXKYLQSIXNXGGPSSGAPPPS (N-terminal hexanoyl (C6); Orn at 12, 27, 29; Aib at 15, 20) [P364] | 0.11 nM | –
HSDAVFTDNYTXLRXQIAAXKYLQSIXNXGGPSSGAPPPS (N-terminal hexanoyl (C6); Orn at 12, 27, 29; Aib at 15, 20) [P365] | 0.13 nM | –
Hexanoyl-HSDAVFTDNYTALR[Aib]QVAA[Aib]KYLQSI[Orn]N[Orn]GGPSSGAPPPS [P366] | 2.6 nM | –
Hexanoyl-HSDAVFTDNYTRLRKQVAAKKYLQSIKNKRGGPSSGAPPPS [P123] | 0.12 nM | –
Hexanoyl-HSDAVFTDNYTRLRKQVAAKKYLQSIKNSRGGPSSGAPPPS [P122] | 0.14 nM | –
HSDAVWTDNYTRLRKQVAAKKYLQSIKNKRYGGPSSGAPPPS [P67] | 94.1 nM | –
HSDAVFTDNYTRLRKQVAAKKYLQSIKNKRGGT [P7] | – | 2.78 nM
HSDAVFTDNYTRLRKQVAAKKYLQSIKNKKGGT [P8] | – | 1.61 nM
[dH]SDAVFTDNYTRLRKQVAAKKYLQSIKNKRYGGPSSGAPPPS [P84] | 185 nM | –
HSDAVFTDNYTRLRKQVAAKKYLQSIKNKKGGPSSGAPPPS [P9] | – | 2.41 nM
Hexanoyl-HSDAVFTDNYTRLRKQVAAQKYLNQLKKGGPSSGAPPPS [P144] | 0.32 nM | –
Hexanoyl-H[Aib]DAVFTDNYTRLRKQVAAKKYLQSIKNKRYGGPSSGAPPPS (ends and bridges not checked) [P166] | 0.15 nM | –
Hexanoyl-HSDAVFTDNYTRLRKQVAAKKYLQ[Aib]IKNKRYGGPSSGAPPPS (ends and bridges not checked) [P187] | 0.4 nM | –

These molecules were tested against T3, human VPAC2 (Homo sapiens, UniProt P41587) (assay: Filter binding assay, membranes of stable VPAC2 cell line, 125I-labeled VIP tracer (Table 2)). Conditions: read-out: Human VPAC2 Receptor Binding.
T3 construct: expressed in transfected cells
T3 sequence (P41587 24-438): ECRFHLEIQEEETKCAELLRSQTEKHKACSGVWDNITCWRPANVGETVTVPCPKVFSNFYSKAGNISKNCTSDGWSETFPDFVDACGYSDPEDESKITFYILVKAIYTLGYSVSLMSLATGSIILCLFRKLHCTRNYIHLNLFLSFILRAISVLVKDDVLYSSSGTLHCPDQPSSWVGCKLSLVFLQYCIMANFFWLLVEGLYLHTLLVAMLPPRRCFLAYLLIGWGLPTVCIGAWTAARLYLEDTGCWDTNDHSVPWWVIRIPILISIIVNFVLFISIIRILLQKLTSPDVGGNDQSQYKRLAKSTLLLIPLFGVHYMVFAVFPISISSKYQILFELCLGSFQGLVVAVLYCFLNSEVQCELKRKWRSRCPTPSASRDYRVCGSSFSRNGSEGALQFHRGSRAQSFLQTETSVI
Method: as §1, §2, §3, §4, §5, §6, §7, §8, §9, §10

Molecule | IC50
HSDAVFTDNYTRLRKQVAAKKYLQSIKRGGPSSGAPPPS [Agonist P82] | 1.9 nM
HSDAVFTDNYTRLRRQVAAKKYLQSIKNKRYGGPSSGAPPPS [Agonist P72] | 1.52 nM
HSDAVFTDNYTRLRRQVAARRYLQSIRNRRYGGPSSGAPPPS [Agonist P71] | 1.52 nM
HSDAVFTDNYTRLRKQVAAKKYLQSIKKGGPSSGAPPPS [Agonist P85] | 1.7 nM
H-H[dA]DAVFTDNYTRLRKQVAAKKYLQSIKNKRYGGPSSGAPPPS [Agonist P47] | 0.84 nM
[dH]SDAVFTDNYTRLRKQVAAKKYLQSIKNKRYGGPSSGAPPPS [Agonist P84] | 20 nM
